# From US11795460B2, “Compositions and methods for TTR gene editing and treating ATTR amyloidosis” (Intellia Therapeutics, Inc., priority 2017, dated 2023)
# Strand notation (5' to 3'): a small letter for the sugar, then the base; units joined by * are phosphorothioate-linked, units joined directly phosphodiester-linked; [ ] holds rarer units or linkages, { } end groups; capitals alone tell only the bases. m = 2'-O-methyl; r = 2'-OH (RNA)
# B1: G000486: TTR sgRNA modified sequence, Human, SEQ ID No. 93; guide sequence of CR003339 (nucleic acid)
# guide: mA*mC*mA*rCrArArArUrArCrCrArGrUrCrCrArGrCrArGrUrUrUrUrArGrAmGmCmUmAmGmAmAmAmUmAmGmCrArArGrUrUrArArArArUrArArGrGrCrUrArGrUrCrCrGrUrUrArUrCrAmAmCmUmUmGmAmAmAmAmAmGmUmGmGmCmAmCmCmGmAmGmUmCmGmGmUmGmCmU*mU*mU*mU
# B2: G000489: TTR sgRNA modified sequence, Human, SEQ ID No. 96; guide sequence of CR003344 (nucleic acid)
# guide: mU*mU*mU*rGrArCrCrArUrCrArGrArGrGrArCrArCrUrGrUrUrUrUrArGrAmGmCmUmAmGmAmAmAmUmAmGmCrArArGrUrUrArArArArUrArArGrGrCrUrArGrUrCrCrGrUrUrArUrCrAmAmCmUmUmGmAmAmAmAmAmGmUmGmGmCmAmCmCmGmAmGmUmCmGmGmUmGmCmU*mU*mU*mU
# B3: G000480: TTR sgRNA modified sequence, Human, SEQ ID No. 87; guide sequence of CR003353 (nucleic acid)
# guide: mA*mA*mA*rGrGrCrUrGrCrUrGrArUrGrArCrArCrCrUrGrUrUrUrUrArGrAmGmCmUmAmGmAmAmAmUmAmGmCrArArGrUrUrArArArArUrArArGrGrCrUrArGrUrCrCrGrUrUrArUrCrAmAmCmUmUmGmAmAmAmAmAmGmUmGmGmCmAmCmCmGmAmGmUmCmGmGmUmGmCmU*mU*mU*mU
# B4: G000488: TTR sgRNA modified sequence, Human, SEQ ID No. 95; guide sequence of CR003346 (nucleic acid)
# guide: mA*mA*mA*rGrUrUrCrUrArGrArUrGrCrUrGrUrCrCrGrGrUrUrUrUrArGrAmGmCmUmAmGmAmAmAmUmAmGmCrArArGrUrUrArArArArUrArArGrGrCrUrArGrUrCrCrGrUrUrArUrCrAmAmCmUmUmGmAmAmAmAmAmGmUmGmGmCmAmCmCmGmAmGmUmCmGmGmUmGmCmU*mU*mU*mU
# B5: G000502: TTR Cyno specific sgRNA modified sequence, SEQ ID No. 114; guide sequence of CR000689; cross homologous between mouse and cyno (nucleic acid)
# guide: mA*mC*mA*rCrArArArUrArCrCrArGrUrCrCrArGrCrGrGrUrUrUrUrArGrAmGmCmUmAmGmAmAmAmUmAmGmCrArArGrUrUrArArArArUrArArGrGrCrUrArGrUrCrCrGrUrUrArUrCrAmAmCmUmUmGmAmAmAmAmAmGmUmGmGmCmAmCmCmGmAmGmUmCmGmGmUmGmCmU*mU*mU*mU
# B6: G000499: TTR sgRNA modified sequence, Human, SEQ ID No. 106; guide sequence of CR005303 (nucleic acid)
# guide: mU*mG*mA*rArUrCrCrArArGrUrGrUrCrCrUrCrUrGrArGrUrUrUrUrArGrAmGmCmUmAmGmAmAmAmUmAmGmCrArArGrUrUrArArArArUrArArGrGrCrUrArGrUrCrCrGrUrUrArUrCrAmAmCmUmUmGmAmAmAmAmAmGmUmGmGmCmAmCmCmGmAmGmUmCmGmGmUmGmCmU*mU*mU*mU
# B7: G000482: TTR sgRNA modified sequence, Human, SEQ ID No. 89; guide sequence of CR003365 (nucleic acid)
# guide: mU*mG*mU*rArGrArArGrGrGrArUrArUrArCrArArArGrGrUrUrUrUrArGrAmGmCmUmAmGmAmAmAmUmAmGmCrArArGrUrUrArArArArUrArArGrGrCrUrArGrUrCrCrGrUrUrArUrCrAmAmCmUmUmGmAmAmAmAmAmGmUmGmGmCmAmCmCmGmAmGmUmCmGmGmUmGmCmU*mU*mU*mU
# B8: G000500: TTR sgRNA modified sequence, Human, SEQ ID No. 107; guide sequence of CR003337 (nucleic acid)
# guide: mC*mC*mA*rGrUrCrCrArGrCrArArGrGrCrArGrArGrGrGrUrUrUrUrArGrAmGmCmUmAmGmAmAmAmUmAmGmCrArArGrUrUrArArArArUrArArGrGrCrUrArGrUrCrCrGrUrUrArUrCrAmAmCmUmUmGmAmAmAmAmAmGmUmGmGmCmAmCmCmGmAmGmUmCmGmGmUmGmCmU*mU*mU*mU
# B9: G000481: TTR sgRNA modified sequence, Human, SEQ ID No. 88; guide sequence of CR003345 (nucleic acid)
# guide: mU*mC*mU*rArGrArArCrUrUrUrGrArCrCrArUrCrArGrGrUrUrUrUrArGrAmGmCmUmAmGmAmAmAmUmAmGmCrArArGrUrUrArArArArUrArArGrGrCrUrArGrUrCrCrGrUrUrArUrCrAmAmCmUmUmGmAmAmAmAmAmGmUmGmGmCmAmCmCmGmAmGmUmCmGmGmUmGmCmU*mU*mU*mU
# Legend:
# TTR [1] = assay: TTR editing in primary cyno hepatocytes electroporated with Spy Cas9 protein and sgRNAs (Tables 14, 15); format: cell-based, cynomolgus monkey
# In short: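 Spy Cas9 RNPs with boiled sgRNAs electroporated (Lonza P3 buffer, program EX-147) into primary cynomolgus hepatocytes; harvest at 24, 48 or 72 h. TTR target site PCR-amplified and sequenced on Illumina MiSeq, reads aligned to mf5; percent editing is reads with indels or substitutions over total reads.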
# human TTR sequence = assay: Liver editing in humanized TTR mice dosed with LNP formulations (Table 26); format: in vivo, mouse
# TTR [2] = assay: EC50 and maximum editing in primary human hepatocytes treated with LNP formulated U-depleted Spy Cas9 mRNA and sgRNAs (Tables 19, 21); format: cell-based; set-up: key: % of sequence reads with indels or substitutions over total reads; conditions: dose response
# In short: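 Primary human hepatocytes, plated 24 h, received LNPs carrying Cas9 mRNA plus TTR sgRNA, preincubated 5 min in media with 6% cyno serum, in an 8-point 3-fold series starting at 300 ng mRNA; lysed 72 h later; editing determined as indel/substitution read fraction by amplicon MiSeq sequencing.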
# [3] = Table 14, primary cyno hepatocytes electroporated with Spy Cas9 protein (RNP) and sgRNAs
# [4] = 1, 0.3, or 0.1 mg/kg, Cas9 mRNA (SEQ ID NO: 1) 1:1 by weight to guide, FIG. 27A
# [5] = 1, 0.3, or 0.1 mg/kg, Cas9 mRNA (SEQ ID NO: 1) 1:2 by weight to guide, FIG. 28A
# [6] = Table 19, LNP with U-depleted Spy Cas9 mRNA and human specific sgRNAs
# [7] = 1, 0.3, 0.1, or 0.03 mg/kg, Cas9 mRNA (SEQ ID NO: 1) 1:1 by weight to guide, FIG. 26A
# [8] = Table 15, primary cyno hepatocytes electroporated with Spy Cas9 protein (RNP) and cyno specific sgRNAs
Molecule,Avg % Deletion (TTR [1]; [3]) [%],Avg % Edit (TTR [1]; [3]) [%],Avg % Insert (TTR [1]; [3]) [%],"Liver editing, dose response (human TTR sequence; [4])","Liver editing, dose response (human TTR sequence; [5])",Max Editing (TTR [2]; [6]),"Liver editing, dose response (human TTR sequence; [7])","Max Editing (TTR [2]; Table 21, LNP with U-depleted Spy Cas9 mRNA and cyno specific sgRNAs)",Avg % Deletion (TTR [1]; [8]) [%],Avg % Edit (TTR [1]; [8]) [%],Avg % Insert (TTR [1]; [8]) [%]
B1,68.07,79.90,11.90,A dose response for both editing and serum TTR levels was evident,A dose response for both editing and serum TTR levels was evident,–,–,–,–,–,–
B2,14.17,67.53,53.53,–,–,86.33,A dose response for both editing and serum TTR levels was evident,–,–,–,–
B3,0.37,10.20,9.83,–,A dose response for both editing and serum TTR levels was evident,98.69,A dose response for both editing and serum TTR levels was evident,–,–,–,–
B4,4.27,9.63,5.37,–,–,95.83,A dose response for both editing and serum TTR levels was evident,–,–,–,–
B5,–,–,–,–,A dose response for both editing and serum TTR levels was evident,–,A dose response for both editing and serum TTR levels was evident,91.50,81.27,95.10,13.97
B6,1.43,83.40,82.00,A dose response for both editing and serum TTR levels was evident,A dose response for both editing and serum TTR levels was evident,96.31,–,–,–,–,–
B7,20.03,75.17,55.23,A dose response for both editing and serum TTR levels was evident,–,97.02,–,–,–,–,–
B8,2.63,45.20,42.60,–,–,88.70,–,–,–,–,–
B9,35.50,69.13,33.73,A dose response for both editing and serum TTR levels was evident,A dose response for both editing and serum TTR levels was evident,87.05,–,–,–,–,–
